# Test: soluble on expression in E. coli; label from the status in PepcDB or PDB records
row,Sequence,soluble on expression in E. coli
1,MQALKTKSNIGEMFNIQEKENGEIAISGRELHQALEVSTRYDKWFERMTEYGFENGIDFISQVEKVHGQKRARTYEQVNHILTLDTAKEIAMIQRSEPGKRARQYFIQVEKAWNSPEMIMQRALKIANNTINQLETKIERDKPKIVFADAVATTKTSILVGELAKIIKQNGINIGQRRLFEWLRQNGFLIKRKGVDYNMPTQYSMERELFEIKETSITHSDGHTSISKTPKVTGKGQQYFVNKFLGEKQTS,not soluble
2,MGSDKIHHHHHHSCDNKGDYWGAMESSKATLTLERICDMATLSQDSVELLSNILGMNTEELYRTDVVMIGKVTSEETGFYQYPRFLIAKDREMKEVLTEAYVHRDTEGTFYAFLESNMLPVGETYYCAMVDYNYGYNGRPGLLDHVLGGNTRGERYSEVKPFRLSGLPRLVVHDAHFTGYSFYLSAEVRFKSNGGIIEQGACYSSTKRIPTVDDQKTLARETRNYDYSFLEVEVTDLLPNTHYYIRPYVTTEEGTGYGPVVEFTTEPGTEPIIDYFTMYIDTDRSVNLYATFYIDNYQITHYGYSYGIYSPETGTVTDEQKIEVPLEDNHGQQLSKVITGLRPGILYAFRVYAENGVGVTYSGYQTVKIPVE,not soluble
3,MDYWEWKTDGAGLEADEVCITVQHGVTLYDKNEKTQRQNGKLSLTTHHLRYNDEADISTVLQLPLELVRRSGQAPSISSGFGPFSSAKIIVPLPKNAYVKLSFRSGGVDNFYAALVGALKKKTWLQTKTEAAASGRGSSSGASPASTTPVPNSRPPPPVPRGFGIAGVQQASLQSAAMSETLKDIDDVMNKASKLVNNIRRLRERSEAAAAAGSDAGSETAVERTTIESIESTLGLGAIVTRNHSNGSDSRFYRDLAVEMHTWMTHECNSKLFNDMPVVPLIELFALYNKARGGDLVSPLDVLNACTYMAAKMSSSCYDLVTLPSGRKALVNRDDSLLLAKLTTVLGPQLVNSKGSPVQDAWTKTSSQQQQRSGDASSLVRVSTTSDFPKASRDLKSVSDVSLAEKMQVATEVAADILTLLMLKGYLCCMDTGFDCYVYTWNIFVF,not soluble
4,MGHHHHHHSHMDQEMRVKRLESEKQELQEQLDLQHKKCQEANQKIQELQASQEARADHEQQIKDLEQKLSLQEQDAAIVKNMKSELVRLPRLERELKQLREESAHLREMRETNGLLQEELEGLQRKLGRQEKMQETLVGLELENERLLAKLQSWERLDQTMGLSIRTPEDLSRFVVELQQRELALKDKNSAVTSSARGLEKARQQLQEELRQVSGQLLEERKKRETHEALARRLQKRVLLLTKERDGMRAILGSYDSELTPAEYSPQLTRRMREAEDMVQKVHSHSAEMEAQLSQALEELGGQKQRADMLEMELKMLKSQS,soluble
5,MGSDKIHHHHHHMDDTTFLSTKEKILEIKPLMESAFGNILGYQELENMLAICTLVPFSNNQILFHQGDRIKGIYIIIKGTVDLIARTLGKGITKIETCLASDFLGETSFLLNEPSATSAVAKDNVTCLFIPSAYFELMPAFSPEAKYKIMKAIGYQACGRLKQLHDKIIDFISHSDMQSLSFLGRVIQTFTQPKIHTLDESGVDKDQIYKKTLFNSFTQDETDELLEHAIPLTANKNCVLIHENETIPVCYIVIYGAVQSNVIQNSKIAKLSVIGPDSLFASTACFLSDTKFSITFITCESATLLKISEAELQYFQKNKPMIWYKLFNLICGSIISLARSLKKLDVRLNIEKYNQ,not soluble
6,MGSDKIHHHHHHMVMERGEIIGIVLQKSEANEMQGLIRADEEISVGQLLLVDDSEKLSLVRVENYEFLNEFFDEKGEIAKSILKEPSIYEILDMNTIIKATLHLIKKYDHNTTPKPGSFVRRLPEIKSEKELLSFYGIKNKKGLIEYGALAGSEIPLLLDLNAITMHMGVFGETGSGKSYNMRYLIKLLSNIKIGDKITALPMIVIDANGDYIDLASTNLDIVSKGRGWIKRYILKDPKEQNDIKLTIDLSIFTPRELSEFIMSLKYGEASYNTLQLNFLEQVLANHESKEYNTLLGSAIGIETLRNEILTMAQNKDIGITTGTARGIASALEIFKNKVISRLQLVNSSASLTENTLEVIWRNRGLAIIDFSADGSPGVDVLTKQLIVSYITRLIFNYLTRSKYNGNQRFLGFVIEEAQNYIPSIDYPVNANLTKDVLVTLATQGRKFGASLILVSQRPAFIDKYVLSMINTFFFHRIYHEDVRYVMSASGGLPESLTKNLTSLDTGYVIVSGLMSIMKSPALVRIPWDPRLGSYAGNVERIDLILSEG,not soluble
7,YAYKSNTYFKLKKKNIKLNGNIIKKSCKLGIPVALQNSLIAFSLIVLQKVVNGYGATFTTAFTVVSRIETLVQQPFMSLGAAVSTYTGQNIGAGLKDRVRKGFN,not soluble
8,MVEKPKDIKIAQESFPILVAENIYHCGYHSEKSYGAASYLIQHSQGNILVDSPRFTPPLVKRIEAMGGIKYMYLTHQDDVADHQKFAEHFQCQRILHTDEISAGTRNVEIQLTGLEPFPLQPDVLIIPVPGHTKGHTVLLYKNKFLFTGDHLAWSENRHQLTAFRDVCWYSWAEQIKSMRRLADYSFDWVLPGHGRRFHADVETMRQQMHKCIELMTDERQPLTFNSLEHHHHHH,soluble
9,MKLPPSLICPPLLALYRVWCRTLNFEEEGRAAVDVLWQERKPMVFALWHDELFPLMHVRRELEIVTVVSQSRDGEYLARVLQGLGLHTARGSSSRGGVKALLQAARMMQKQNLCGCVTVDGPRGPRHRVKEGAIFLAHRAKAPIVPIRLFMSRTKVFAKAWDKFQLPLPGSDVRVVFGAPYHTAENALESPRLEDERQRLEAKLEALALEHHHHHH,soluble
10,GKLHEPYEIIVIDVPSEYQGNVTQLLATRKGLMQSMSTTPGSDWIRMEFRIPARGLIGFRTQFMTETRGTGIANSYSDGMDVWAGEIKGRAHGSLVADRSGQITAYALTQLADRGSFFVEPGTETYEGVV,not soluble
11,MNSEIFRIFRKKYSEEIRNPPMNATTLPEALKLMQYIGDAIGTIRDPQELFRTVTDKLRLLFAFDSAVIITIDRERREASVFFEMLRFELPEQLRHQTRSIAGTWLEGHLDDRTVTVASIARDIPSFGADGAPLLWTLHELGMRQIVLSPLRSGGRVIGFLSFVSAEEKLWSDGDKSLLSGVSSSIAIAVSNALAYEELRQRE,not soluble
12,MGHHHHHHSHMQNADDFIKFLELEQHVEGGFYRSSYRSETAFDPSRQLWSSIYFLLRTGEVSHFHRLTADEMWYFHAGQSLTIYMISPEGELTTAQLGLDLAAGERPQFLVPKGCIFGSAMNQDGFSLVGCMVSPGFTFDDFELFSQEALLAMYPQHKAVVQKLSRPEVN,soluble
13,FNQTYQFTGLLNPDGTVIEANDAALDFGGLDRDEIVGKHFADIPWWSHSDTERDNVRDALERAASGEFVRYETEVRGVDGLGTIDFSVKPVTDQDENVTLLVVEGRDIT,not soluble
14,AHHHHHHGSKLDDSFLTLFPEEDKVYEVLLSTKSNFTPIGVRRQGRVLKFRIFEGRSFRDLEECNYAIIQVVDDTELLAGLAYNLDVKFDVTQGIKVPIRRIEGYPWVEGEVKCRIVKVKDSIGESIAKDCTLTPIYIGIEKRVPRPISRADNVLLELAVLGTRLIVKKKRGLQIKDVAQKIEELYELYRKLGGKSEIAGKIMDILRKHYL,soluble
15,MTKMLKLFDAHFHIIDYRFPLITNQSYLPPEFTVEDYLQRAKPLNICGGAVVSGSFQAFDQSYLLAALSILGSDFVGVTQLPATVSDEEIIQLNQKGIRAVRFNVKRGGSENIHRLKYFAHRIYEMVRWHVEIYVDSKDLGDLTSLLLELPAVSIDHLGLSHSGFSQLLHLVEHGIKIKASGFGRVDFDVKKALQTIAQINPDALLFGTDLPSTRAPRPFLDSDIQIIQDLFDEKLTEKILYRNARNFYSKNSSELEHHHHHH,not soluble
16,MTSALPRPAPSPYARRKTALVIGAGFGGLALGIRLQSLGFDTTILERLDGPGGRAYQKRTPDGYVFDMGPTVLTVPHFIEELFALERDRAGLDAPDYPPEVLSGERVKEGVSGGPHTSRYVTLVPILPFYRIVFHDGTYFDYDGDPESTRRQIAELAPGDLAGYERFHADAEAIFRRGFLELGYTHFGDVPTMLRVVPDLLKLDAVRTLFSFTSKYFQSDKLRQVFSFETLLVGGNPLSVPAIYAMIHFVEKTWGIHYAMGGTGALVRGLVQKFEELGGAIRYGAGVDEVLVDGNLPGKRTARGVRLESGEELRADLVASNGDWANTYLKRVRPSARLVNSDLRVKAASESMSLLVVYFGFRGGDDLPLKHHNILLGPRYEALLSEIFGTKRLGEDFSQYLHVPTLTDPALAPAGHHAAYTLVPVPHNGSGIDWDVEGPKLAEAALADIERRGLIPGLRERLTHFEFITPDYFAGTLDSYLGNAFGPEPRLVQSAFFRPHNRSEDLHNFYLVGAGAQPGAGTPSVMMSAKMTARLIAEDFGIHADIRRLEHHHHHH,not soluble
17,GSDARSRGRVPGYASSSLYRESGIISARQLALLQRMLPRLRLEQLFRCEWLQQRLARGLALGREEVRQILLCAAQDDDGWCSELGDRVNLAVPQSMIDWVLLPVYGWWESLLDQAIPGWRLSLVELETQSRQLRVKSEFWSRVAELEPEQAREELARVAKCQARTQEQVAELAGKLETASALAKSAWPNWQRGMATLLASGGLAGFEPIPEVLECLWQPLCRLDDDVGAADAVQAWLHERNLCQAQDHFYWQS,not soluble
18,MSLSSTSHERLEVEPIDESSILFADDDHYTSDTVCLVTGGGSGIGRATALAMAANGVTAVATDIDADGLAEVADTAADLDLDGAVETVAGDLANDADIEAIVETAASHGTVRYLANIAGLQHIDAIEDFPMEKYDQMHDVMLRAPLALSKRVIPHIRGTDDGVGAIGNMASVHGHYVTSDKVAYNVSKFGLRGLTQSIAAEGGDGLRGFSISTGYVKTPLVVDQIPDTAEQRGISVDEVIDDVMLGQARIKEMMDPIDVANLFVFGFSRHANHLNGGDLLFDGGMTKTYEGHHHHHH,not soluble
19,MESVSCSAAAVRTGDMESQRDLSLVPERLQRREQERQLEVERRKQKRQNQEVEKENSHFFVATFARERAAVEELLERAESVERLEEAASRLQGLQKLINDSVFFLAAYDLRQGQEALARLQAALAERRRGLQPKKRFAFKTRGKDAASSTKVDAAPGIPPAVESIQDSPLPKKAEGDLGPSWVCGFSNLESQVLEKRASELHQRDVLLTELSNCTVRLYGNPNTLRLTKAHSCKLLCGPVSTSVFLEDCSDCVLAVACQQLRIHSTKDTRIFLQVTSRAIVEDCSGIQFAPYTWSYPEIDKDFESSGLDRSKNNWNDVDDFNWLARDMASPNWSILPEEERNIQWD,soluble
20,KILDACCGSRMFWFDKQNDQVLFMDNRKHYEKLESGHIVAVNPNIVADFRKMPFDDNSFYHVVFDPPHLLRAGSNSWLAKKYGKLNEQTWKEDIQKGFSECMRVLKPNGTLVFKWNEDQIKLSEILSIIDYEPLYGNKRAKTHWLVFMKESEENESNG,soluble
21,MGSDKIHHHHHHMSNFLLEAGRQTLMLELQEASRLPERLGDDFIRAAETIIHCEGKLIVSGIGKSGHIGKKLAATFASTGTPAFFVHPAEALHGDLGMLDSRDVMLFISYSGSAKELDLIVPRLEEKGIPLLAMTGKSTSPLALAAKAVLDIAVEREACPMHLAPTSSTVNTLMLGDALAMAVMQARGFNEEDFARSHPAGALGARLLNKVHHLMRRDEEVPRVNTEANVMDAMLELSRTGLGLVAVCDEANRVQGVFTDGDLRRWLVAGGTLNDGVTRAMTRNGVTLQADSRAVEAKERLMKHKISAAPVVDENGQLVGAINLQNFYQAGIL,not soluble
22,MGKVTIIAGGIKTESRLTGLTQLAANELVTNGLEVNIIEVHKINAEALVTADFAHSDIQLANSEIESSSGVIIATPIFKAAYSGVLKAYLDLLPLKALKGKVVLPLGLGGSNGHLLALQYALDPVLKELGAETILKGQFTVDKQIERLGDGLYEIESSAKERLDIALGQFISLLNQQSVEVLEHHHHHH,soluble
